Target: the molecule itself
Test: cross-linking + SEC; with 2.5-, 5- or 10-fold molar excess of the 22-peptide …; HtrA variants 10 μM monomer, 15 min 37°C then 10 h 4°C in 20 mM HEPES-NaOH pH 8.0, 100 mM NaCl; BS^3 0.45 mM, 30 min room temperature; Superose 12 10/300 GL, 25°C

B1: HtrA-S210A (oxidized control variant, as used in cross-linking and SEC) (enzyme, Escherichia coli, UniProt P0C0V0 27-474, looked up)
chain: AETSSATTAQQMPSLAPMLEKVMPSVVSINVEGSTTVNTPRMPRNFQQFFGDDSPFCQEGSPFQSSPFCQGGQGGNGGGQQQKFMALGSGVIIDADKGYVVTNNHVVDNATVIKVQLSDGRKFDAKMVGKDPRSDIALIQIQNPKNLTAIKMADSDALRVGDYTVAIGNPFGLGETVTSGIVSALGRSGLNAENYENFIQTDAAINRGNAGGALVNLNGELIGINTAILAPDGGNIGIGFAIPSNMVKNLTSQMVEYGQVKRGELGIMGTELNSELAKAMKVDAQRGAFVSQVLPNSSAAKAGIKAGDVITSLNGKPISSFAALRAQVGTMPVGSKLTLGLLRDGKQVNVNLELQQSSQNQVDSSSIFNGIEGAEMSNKGKDQGVVVNNVKTGTPAAQIGLKKGDVIIGANQQAVKNIAELRKVLDSKPSVLALNIQRGDSTIYLLMQ
modifications: disulfide bond Cys57-Cys69 (oxidized)
notes: HtrA (DegP) serine protease, Escherichia coli; polypeptide chain of 448 residues as printed; also called oxidized control (S210A); control HtrA
  stoichiometry N: 12

Reference: publication PMC4339722, “Analysis of the Link between the Redox State and Enzymatic Activity of the HtrA (DegP) Protein from Escherichia coli” (PLoS ONE, 2015)
